This is an account of results in a protein production outcome set (Wang et al. 2014).

The nature of the data set: label from the status in PepcDB records.
Turning to “MIPTISDVSTVEEWRSVAKDIVQRDGDVNWRATIVDWPGLGYSARPKMDYDTDVMEKFVVDFMNSPESPMSQSGNDDLVIIGGGHAATLALRATQRGLLKPSAIAAVAPTWAGPLPIVFGRDSSMVSRYGMLRGTLRAPGVGWMMYNMLVSNEKSIESQYKSHVYADQTNVTDAIIQSRYELTKQKGSRYVPAAFLTGLLDPVSSREEFLQLFADLEGKLPVMVMSTKGAPKRSKAEMEALRGAKGVSKFVEVEGALLPQEEYPSLVAQELYNFLQETFAKC”, the protein production result is reported as “failed”.

In the case of “MIQEIIAFLGRRGEFFYISVFMLLMFFIFLISWLIEPRRLINGVLFTIFFISVFAWITVMINKSTSRGLQRAYNLLLLIVFFGIILILVFAWLFLFWNAYFVWKYESHTLPNLLTLFSGFIALIFSVIFILGPGRYLPHWLSALLASIPAIAIYLGLVLYNFLVNLLLYQIYPRHYKQDYLIVLGAGLINGDQVSKLLAARINRAIQFSNRQYQKGRKRPIIIMSGGQGPDEKVPEALAMAKFAQHRGVSPDHILIEDQSKNTYQNMLFSKQLATNDFGGPNFKATFFSNNYHIFRAALLAKEVGLKANGVGAFTRLYYLPNAIIREFAGVFVMHKRRHFVIMGVIVLFFILQAILAAAGIVKFNVI”, the protein production result is reported as “failed”.

In the case of “MIQLRAISRGMICGLLLSQLWSCSSTPLEPTAIEVDALFDDSLFKPVTNIPSVEDIFSLPSSVAVDVKRTYDRYAISTKNPLAVHEWLASYINANQSNGHSDFRYQDNLTQTASETFEQRAGNCMSLVVMTSALADIFNIGTEFQDIAIEPVWDKQGDFYLINGHVNLRLLPAQSVHTVYVSTHAILVDFMPERALRGLAKVQINRQTLTAMFYNNMAAESLVEGDLDHAYALVKAGLKSGHFSPALNTLAVIYRHKGDEKRAEQVYRYALKFDPDDMTTLFNLAVILDNQGRLEEWAQIHKKLELARIRNPYYYYDMGEQAYDEHQYREALAWYQRAVDKADYRHEFFFGLSRTYWALGDEKRAKQNMEKALALSREAADKHRCQAKLQAMRQH”, the protein production result was “failed”. The result for “MIQTKDIIELTDTYGANNYHPLPIVISKAEGVWVEDPEGNRYMDLLSAYSAVNQGHRHPKIINALIDQANRVTLTSRAFHSDQLGPWYEKVAKLTNKEMVLPMNTGAEAVETAIKTARRWAYDVKKVEANRAEIIVCEDNFHGRTMGAVSMSSNEEYKRGFGPMLPGIIVIPYGDLEALKAAITPNTAAFILEPIQGEAGINIPPAGFLKEALEVCKKENVLFVADEIQTGLGRTGKVFACDWDNVTPDMYILGKALGGGVFPISCAAANRDILGVFEPGSHGSTFGGNPLACAVSIAALEVLEEEKLTERSLQLGEKLVGQLKEIDNPMITEVRGKGLFIGIELNEPARPYCEQLKAAGLLCKETHENVIRIAPPLVISEEDLEWAFQKIKAVLS” reads “not failed”. With “MIQVGDRFYDQAIVQTMGARAAEAVGLSDRPELSFAVCLSDPAEFLALLLAIREAGASVLPIHPSTPRAAARRLAIDLGCHRLVTDELAVEDLGAEDPGPGGLLQTTSGTTGEPKRIARSWAEIDREIDSYVATFVAPQDMTPLIACPITHSYGLICGVLVALRRGQVPHILGTANPKYLIARLRQTRQPLLYSSPAMLHAIARLLPAGEMIHAAMTSGTLLPDQWLMTIRARTTHLFQQYGCSEAGCVAINPNLSASGDMGAPLPHLRVEAGDTDQPREIVVHVGDRAIRTADLGYTKADGTLVFVGRLDDTINVSGLNVYPKEVEDVVMAMPGVTDAVVFRRLDSLAGERVAVAFSAEHSIAPADLRDWCIKNLAAHQVPMETVRLPRLPRQANGKISRREIAALHAEGRLELLAEETAA”, the protein production result is given as “failed”. As to “MIRAAAKFSREAAATIRGRTISVRGNLIRYSTPLRLIHGEISVPNANHVAIQMVNYALSHARSQKSDESYAQGMLVLEQCLGNQPNDDQVSHDSKATVLLAMSDLLYESGNSSEAIERLKQVMTLTHSSLAIRVVAVEALVGLLIQSGQDDASLDVADEFLKLVKESGHENLQGVVATVKAIKGLAELVKGNIESAESLFRGLENHESCKGNIALSYGEYLHATGNFELAKEMYQKAIQGVTETKESMCSCNMNLKAVSLAATFALGQLESHIGNFGVAEKTLTDALTKTEEHYGDNHPKVGVILTAVALMYGNKAKQERSSSILIQEGLYRKALELMKAPPLDSKGIINMENQEVIALARAGYAELLLIQENRKSEGEKMKSWAESAWRNKRISLSEALTLSEPLGKVAIIDARTTRVL”, the protein production result is listed as “failed”. The result for “MIRAASDDPAGVDELVAAIAPGLAGLGLPVINRREVVLVTGPWLAGVSGVRAALAERLPQRRFVETAELGPGDAPVAVVFVVSAATALTESDCVLLDTAAEHTDAVVAVVSKIDVHRGWRDVLTSNRDRLAARASRYARVPWVGAAAAPELGEPYLDDLVAAIQKQLADPAVARRNMLRAWESRLLMVARRFDGDAQSAGRRARVDALRQQRRTVLRQGRQSKSEHTIALRAQIQHARVKLSYFARNRCSLLRVELQEHVAGLSRKDIARFAAYTRGRVQEVVAEVGEGAVAHLADVAQLLGVPVQPPVLENLPAVLPTVVAPPLTSRRLEIRLTTLLGAGFGLGIALTLSRLVAGLTPGLAASGMVAGVAIGLAVTAWVVNARALLHDRVVVDRWTGEVTASLRSVVEQLVATRVVAVETLLSTAISERDDAENARVADQVSIIDGELREHAVAAARAAALRDREMPAVRAALEAVRAELGEPGAPTTGLF” reads “failed”; that for “MIRCLHVLYVRHVMLMSTIHHTKRTLQPYFALVRAPFLVFTAIVILLPAAAAAEAGILNVTNTLLAFGSVLAAHVAVNILNLASDYRTGIDEATDETPYSGGNDVLVSGTLSYRRALAAGVIAILASALFVVPLVSQFGGIVLLFYGVGTVLVVGYTDVFARIGLGEFACGAGLTFLPTVAVGYIQAGTFPESVLYLSVPMFLVGFNLLLLNEFPDVEADRTNGRVNIPVVLGRQTAGYIYFGLVGVLVASLLYPIATGALPATVAVAILPIALLAPIFRTVVLEGNGDLTDDELGNHILWTQTTIVALAVGMAAAAVL”, “failed”. With “MIRFIGNNRRNLITALILYLLTLVPIYVFLFSNGYLNFYGPNLPLFSGKEVEHLLAASIYNPEYGFSVNDGIYFLYLLIFTSLGIYNIIILYKIFLIITFSITFLLLYTMINKAINIFKISRYKSLSLIIGVLFFLLNPLYLEYVAFNFYNLIWGVIIFSYILIKLIDIVVNDKNVTKLDILKSGIALGFSGLMDPRLYIWGSYILILTFIIVIIIKPRLILKLIKYLSLTYISSLPIIAYIYYLFVYPSLITQASTINAITVPAYRPDTYSYIATWSENSLLFNVFAFINSEWTSIVYAPPSILFYPRTQWWFFPHFGNNSLILLPPGIITYIWLASLYIFFIVAALALFDRKRTLASSLLFIPMLLIISLSAGTNVPIKEFVYLLEIDPSKLPIVGGIFATTFAIPYYAEVMALPFASYLSILGTNYLLNRINKEILKKIAVSIIIVLAVFASWQYFNGTLYPSEVTGSFPGNSISLEGYYYPLNPPPQWVHVMNLLSTSRESVRNVKN”, the protein production entry was “failed”. With “MIRKFSLIMATYGRKDEVGCFLESLMNSNYPMDKVEVIIVDQNKEIDLEPIISKYKEKIKVVHIKSNERGLALNRNKGLEIATGDIIAFPDDDCEYLVDTLNIVNNYFENEHCDLLMGRIVERNGEDSLREWPKEKIEINKNNFYTKCSSVTMFLDSKKCFVKFNDQLGAGKYFGACEDADLIYKNCKKGLKIIYNPELQIYHPHYDSNSNMDDKKIYSYGLGFGAMVKSNFDFSMLILFIKAEGYHFLKSLIYLITFKTTKSKRSWLAFKSRIKGFFEYKN”, the protein production result is given as “failed”. With “MIRKKQTEKPSEWDPPAPSTVYIKIKNIPYETFKTKLNQGLVTTDLDQIRYRLEKHIYCCGVCSKHVNGYCVITNRKAEPGWICKSFVPKEEFIYLDSRPDRKDPAEFRYLSETGLEKDYIESAGARERRHGNEGTKALYDEGVTLYRQGRLKLALEAFDSVLEANPLDFAALFHKGNALLKLKRYEEALEVFERASEINQENAGLWTNLGFIFTKLERFRDSLEAFEKSISLNPVQKNAWEGRDAVIARVRLCEERLRESEEALKKNPEDPDTLFKIGKIHLRLGEQEKAIQAFKKALEIKPENAEAWQFRGKVLFKAGSEKEALHAFEKATRLKPDYAEAWFEKGNAFLKLENLKGAENAFKIAARLWDSKGIKSKAESARDKVKRLHSSN”, the protein production result is on record as “failed”. The result for “MIRLSNENTIFFMDKENVPIASCQSGDTVIFETKDCFSDQITNEEQALTSIDFNRVNPATGPLYVEGARRGDMLEIEILDIKVGKQGVMTAAPGLGALGESLNSPTTKLFPIEGDDVVYSTGLRLPLQPMIGVIGTAPPGEPINNGTPGPHGGNLDTKDIKPGTTVYLPVEVDGALLALGDLHAAMGDGEILICGVEIAGTVTLKVNVKKERMFPLPALKTDTHFMTIASAETLDAAAVQATKNMATFLANRTALSIEEAGMLLSGAGDLYVSQIVNPLKTARFSLALHYFEKLGVDLCN” reads “not failed”. For “MIRNIVFDLGGVLIHLNREESIRRFKAIGVADIEEMLDPYLQKGLFLDLESGRKSEEEFRTELSRYIGKELTYQQVYDALLGFLEEISAEKFDYIDSLRPDYRLFLLSNTNPYVLDLAMSPRFLPSGRTLDSFFDKVYASCQMGKYKPNEDIFLEMIADSGMKPEETLFIDDGPANVATAERLGFHTYCPDNGENWIPAITRLLREQK” the value was “not failed”; for “MIRRLLRMVRGRTGQRLPDGGIQQDEASKIETAGDSDAREQRAADSDTTREMGTDTGTGLSTGRFVDENVRLLLNGLSQPTFVLDAEGEVVAWNEALAELTGATRDEAVGHDHASEMFYPDGRRAKTLADKVLEHPETVHEEYDVELEAPEMGRVADTSTMLDQYGDEKHIYFAATPQYRDGELVGVVETVIDRTEEVERRLAIERLVGTLGSTLESLRSGELDARAELEDEHAAALDDELLDVVDALNAFAEEFQTLSGRVEQQADRLDDAVDRVVEAAAEISDAVGEQNELVDDAVSEMQTFSAQMEEVAATAQDVDEAASDAKETAEHGLETGQDAREAAKEVTDISEELVDDITALQARMDDIESVVEVVSDVADQTNILALNANIEAARADESGEGFAVVADEVKSLADETQSHTDDITDSIEKLREQTDRTVSAAMTSSERVDRADQRIQEMFDAFEDIADAVEAAADGIAEVAQANDDQAASIEEVTATLETVREHSERAETAAEDVESAATSQAESIDALIKRVERLREGTADAADAA”, “failed”.

Regarding “MIRSLLLASAACALAFPAAAETVAIVNARLEPVSSPAIPNGTLVIKDGKIAALGASIQVPAGARVIDAKGGVVTPGLIAPSSNLGASEISGVRETRDDGTGSALSAAFDISYGVNPASTFLGLARDGGITGSAVTPVLSGTGGGAHEHADDGVVEEMTAGAHGDGDPPLFGGQAAFIRLKAGSPDIVEARKLAVTVSLGESGARAAGGSRGANLVLLRSALEDARAFASRRAAFEQGATRDFGLSRLDLQALIPVVQGKTPLLIRVSRAADIRQALKFAAEERIKIVLEGVEEGWMVADEIAKAGVPVILDPQDDLPGSFETLGSRLDNAARLHAAGVSVAINGSRDFNNLRQERLNAGLAVAHGLPYPAALAAVTLVPARIWGQADKVGSLEVGKLADVVVWNGDPLETTSWPTAVLIGGVEQPKDGRHEQLKARYAAGDQNGYPPAYR”, the protein production result is reported as “failed”. The result for “MIRVGYLGPEATFTNMAVSRFFPEAEHVPYRTIPDCMDAAANGNVDYAVVPLENAIEGSVNITIDYLVHEQPLSIVGEITVPIQQHLLVHPQYAEVWEEVYAVHSHPHAIAQCHKFLNEELKGITARDMTSTSAAAQYVKEHPEEKIAAIANEAAAEKYGLTIVRRSIHTHKNNHTRFLVLHKKKKAILSNNGENRGEKTTLMITLPADYAGALYQVLSAFAWRKLNLSKIESRPMKTGLGNYFFLIDVDKAYDDVLLPGVTMELEALGFSVTVLGSYSSYWL” reads “failed”. For “MISAGDFKNGVTFELDGQIFQVIEFQHVKPGKGAAFVRTKLKNIVTGATIEKTFNPTDKMPKAHIERKDMQYLYNDGDLYYFMDTETFEQLPLGKDKIGDALKFVKENEIVKVLSHKGNVFGIEPPNFVELEVTDTEPGFKGDTATGATKPAIVETGASIKVPLFVNKGDIIRIDTRTGEYMERV” the value was “not failed”.
